{"source": "paper PMC3299322", "key": {"[1]": {"target": "Tissue factor (residues 1–209), soluble, immobilised on CNBr-activated sepharose-4B", "experiment": "radioligand binding; as a1 but in human serum, 0 hour (no incubation in serum before the sepharose was added); binding 1 h at room temperature; median of 3"}, "[2]": {"target": "Tissue factor (residues 1–209), soluble, immobilised on CNBr-activated sepharose-4B", "experiment": "radioligand binding; as a1 but after 1 hour of incubation of 111In-DTPA-rFVIIa in 270 uL human serum at room temperature before the sepharose was added; binding 1 h at room temperature; median of 3"}, "[3]": {"target": "Tissue factor (residues 1–209), soluble, immobilised on CNBr-activated sepharose-4B", "experiment": "radioligand binding; 111In-DTPA-rFVIIa incubated 1 h at room temperature with TF (1–209)-sepharose (50% suspension) in assay buffer (10 mM glycyl-glycine, 150 mM NaCl, 10 mM CaCl2, 0.1% BSA, pH 7.5); beads and filtrate separated in Spin-X filter tubes and counted; median of 3 labellings"}}, "data": [{"substance": "111In-DTPA-rFVIIa (111Indium-labelled, DTPA-conjugated recombinant activated coagulation factor VII) (enzyme)", "values": [{"measurement": "binding efficiency (%)", "setting": "[1]", "value": 39, "unit": "%"}, {"measurement": "binding efficiency (%)", "setting": "[2]", "value": 36, "unit": "%"}, {"measurement": "binding efficiency (%)", "setting": "[3]", "value": 48, "unit": "%"}]}]}
